From US20190177382A1 (US Dept. of Health and Human Services, published 2019)

Molecular target: T1, KDR ectodomain-IgG fusion protein (UniProt P35968 20-764, limits assumed)
T1 construct: extracellular domain; also called KDR-Ig ectodomain; not shown: IgG portion of the fusion
Assay: electrochemiluminescent saturation binding; VEGF captured by a non-neutralizing anti-VEGF mAb, KDR-Ig ectodomain titrated, detected with tagged anti-KDR

T1 sequence (P35968 20-764 limits assumed): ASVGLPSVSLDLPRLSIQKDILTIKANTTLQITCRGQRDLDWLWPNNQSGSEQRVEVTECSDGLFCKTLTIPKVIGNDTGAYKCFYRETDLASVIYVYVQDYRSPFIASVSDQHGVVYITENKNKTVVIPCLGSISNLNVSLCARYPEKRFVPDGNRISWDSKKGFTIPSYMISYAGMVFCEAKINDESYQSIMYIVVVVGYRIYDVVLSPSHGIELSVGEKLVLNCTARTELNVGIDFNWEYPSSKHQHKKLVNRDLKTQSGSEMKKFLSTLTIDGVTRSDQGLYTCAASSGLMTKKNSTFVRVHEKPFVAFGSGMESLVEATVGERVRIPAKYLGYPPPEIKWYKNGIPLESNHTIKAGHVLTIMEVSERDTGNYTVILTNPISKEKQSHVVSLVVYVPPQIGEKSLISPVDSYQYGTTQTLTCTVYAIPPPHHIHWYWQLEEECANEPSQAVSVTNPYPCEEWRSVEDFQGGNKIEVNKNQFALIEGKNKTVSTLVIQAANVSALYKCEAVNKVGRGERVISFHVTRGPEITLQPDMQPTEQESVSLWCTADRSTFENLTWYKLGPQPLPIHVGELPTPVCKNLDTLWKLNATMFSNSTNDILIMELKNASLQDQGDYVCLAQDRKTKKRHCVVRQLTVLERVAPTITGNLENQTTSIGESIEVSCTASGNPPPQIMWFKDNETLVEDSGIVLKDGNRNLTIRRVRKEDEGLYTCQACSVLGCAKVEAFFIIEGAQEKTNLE

Kd: ~0.019 nM
B1: VEGF165 3S (human VEGF165 R123E/R124E/R159E) (ligand)
chain: APMAEGGGQNHHEVVKFMDVYQRSYCHPIETLVDIFQEYPDEIEYIFKPSCVPLMRCGGCCNDEGLECVPTEESNITMQIMRIKPHQGQHIGEMSFLQHNKCECRPKKDRARQENPCGPCSEEEKHLFVQDPQTCKCSCKNTDSRCKARQLELNERTCECDKPRR
notes: Secreted into conditioned media by 293/KDR transfectants, made with the native signal peptide; also called VEGF 3S
